Measured values taken from article PMC5686756, “IKKγ-Mimetic Peptides Block the Resistance to Apoptosis Associated with Kaposi's Sarcoma-Associated Herpesvirus Infection” (Journal of Virology, 2017).
Positions of bridges follow the written chain, without caps; N, C: chain ends. Non-standard residues stand in square brackets, D forms with d. No end group written: not given here. S5 = C=CCCC[C@](C)(N)C(=O)O

What was measured:
[1] = target: T1, GB1-tagged ks-vFLIP (residues 1 to 188) (Kaposi's sarcoma-associated herpesvirus …, UniProt Q76RF1 1-188); test: ITC; competition: GB1–ks-vFLIP first incubated with 20 μM spIKKγ and 4% DMSO, then titrated with IKKγ(150–272); deionized water, 25°C; apparent; details: both partners purified
T1 construct: KSHV vFLIP (ks-vFLIP), residues 1 to 188, cloned into GB1-pBR22b (modified pET22b); GB1 is the streptococcal protein G immunoglobulin domain fusion tag; also called GB1–ks-vFLIP; GB1-vFLIP; source: E. coli BL21(DE3), purified (His-trap, Superdex S75 size exclusion); not shown: GB1, N-terminal, kept

[2] = target: T1, GB1-tagged ks-vFLIP (residues 1 to 188); test: ITC; IKKγ(150–272) (~85-100 μM, syringe) titrated into GB1-vFLIP (~8-10 μM, cell); deionized water, 4% DMSO, 25°C; one-site model; apparent; details: both partners purified

LQVAYH[S5]LFQ[S5]YDNHIKSSC (staple 7-11) [spIKKγ, conformationally constrained stapled 20-mer peptide of the IKKγ minimal interacting motif (L]
Ki [1]: 257 nM

B1: IKKγ fragment encompassing residues 150 to 272 (domain or fragment, UniProt Q9Y6K9 150-272, looked up)
chain: LGELQESQSRLEAATKECQALEGRARAASEQARQLESEREALQQQHSVQVDQLRMQGQSVEAALRMERQAASEEKRKLAQLQVAYHQLFQEYDNHIKSSVVGSERKRGMQLEDLKQQLQQAEE
notes: also called IKKγ(150–272); NEMO
Kd [2]: 380 nM | apparent Kd in the presence of spIKKγ (20 μM) [1]: 30000 nM
